Experimental findings from US20190127454A1 (ACADEMIA SINICA, published 2019) are described below.

The chains are these.
B4: human SCUBE2 (Signal peptide-CUB-EGF domain-containing protein 2) (receptor)
chain: RAAGPQEDVDECAQGLDDCHADALCQNTPTSYKCSCKPGYQGEGRQCEDIDECGNELNGGCVHDCLNIPGNYRCTCFDGFMLAHDGHNCLDVDECLENNGGCQHTCVNVMGSYECCCKEGFFLSDNQHTCIHRSEEGLSCMNKDHGCSHICKEAPRGSVACECRPGFELAKNQRDCILTCNHGNGGCQHSCDDTADGPECSCHPQYKMHTDGRSCLEREDTVLEVTESNTTSVVDGDKRVKRRLLMETCAVNNGGCDRTCKDTSTGVHCSCPVGFTLQLDGKTCKDIDECQTRNGGCDHFCKNIVGSFDCGCKKGFKLLTDEKSCQDVDECSLDRTCDHSCINHPGTFACACNRGYTLYGFTHCGDTNECSINNGGCQQVCVNTVGSYECQCHPGYKLHWNKKDCVEVKGLLPTSVSPRVSLHCGKSGGGDGCFLRCHSGIHLSSGLQGAYSVTCGSSSPLRNKQQKSNDSAFGDVTTIRTSVTFKLNEGKCSLKNAELFPEGLRPALPEKHSSVKESFRYVNLTCSSGKQVPGAPGRPSTPKEMFITVEFELETNQKEVTASCDLSCIVKRTEKRLRKAIRTLRKAVHREQFHLQLSGMNLDVAKKPPRTSERQAESCGVGQGHAENQCVSCRAGTYYDGARERCILCPNGTFQNEEGQMTCEPCPRPGNSGALKTPEAWNMSECGGLCQPGEYSADGFAPCQLCALGTFQPEAGRTSCFPCGGGLATKHQGATSFQDCETRVQCSPGHFYNTTTHRCIRCPVGTYQPEFGKNNCVSCPGNTTTDFDGSTNITQCKNRRCGGELGDFTGYIESPNYPGNYPANTECTWTINPPPKRRILIVVPEIFLPIEDDCGDYLVMRKTSSSNSVTTYETCQTYERPIAFTSRSKKLWIQFKSNEGNSARGFQVPYVTYDEDYQELIEDIVRDGRLYASENHQEILKDKKLIKALFDVLAHPQNYFKYTAQESREMFPRSFIRLLRSKVSRFLRPYK
notes: Signal peptide a.a; 1-37 and mature protein a.a; also GST.SCUBE2-CUB); also called FLAG.SCUBE2-FL; FLAG-tagged SCUBE2

The target in assay [1] is B4. Briefly: domain mapping (FIG. 12A); method not described.
For assay [2], the target named is T1, SCUBE1 (UniProt Q8IWY4 24-988, limits assumed).
T1 construct: also called SCUBE1 protein
T1 sequence (looked up): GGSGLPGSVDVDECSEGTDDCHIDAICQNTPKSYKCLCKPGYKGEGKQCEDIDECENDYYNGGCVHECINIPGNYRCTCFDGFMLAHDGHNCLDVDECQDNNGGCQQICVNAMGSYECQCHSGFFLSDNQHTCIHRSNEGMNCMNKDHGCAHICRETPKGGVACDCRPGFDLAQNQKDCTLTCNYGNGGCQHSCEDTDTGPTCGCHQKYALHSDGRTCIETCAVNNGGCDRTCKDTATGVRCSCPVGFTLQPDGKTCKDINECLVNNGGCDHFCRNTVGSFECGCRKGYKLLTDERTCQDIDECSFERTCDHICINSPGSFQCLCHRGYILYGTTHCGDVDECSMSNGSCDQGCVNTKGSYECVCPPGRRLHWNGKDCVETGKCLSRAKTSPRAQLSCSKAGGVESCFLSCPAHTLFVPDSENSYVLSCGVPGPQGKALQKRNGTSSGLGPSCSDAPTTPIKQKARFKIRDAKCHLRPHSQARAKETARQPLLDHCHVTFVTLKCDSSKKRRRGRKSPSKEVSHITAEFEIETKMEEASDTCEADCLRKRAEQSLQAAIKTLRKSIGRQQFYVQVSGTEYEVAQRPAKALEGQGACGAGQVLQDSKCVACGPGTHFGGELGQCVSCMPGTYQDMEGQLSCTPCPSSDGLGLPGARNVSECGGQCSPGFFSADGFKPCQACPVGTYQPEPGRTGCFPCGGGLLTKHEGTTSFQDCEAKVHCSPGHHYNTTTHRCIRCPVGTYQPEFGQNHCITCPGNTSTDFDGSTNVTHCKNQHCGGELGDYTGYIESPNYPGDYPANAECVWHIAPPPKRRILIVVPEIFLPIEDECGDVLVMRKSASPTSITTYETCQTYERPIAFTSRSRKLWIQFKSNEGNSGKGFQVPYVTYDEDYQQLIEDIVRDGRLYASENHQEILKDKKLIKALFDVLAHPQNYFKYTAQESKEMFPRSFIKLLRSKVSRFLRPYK
In words: co-immunoprecipitation.

Assay [3] addresses T2, SCUBE3 (UniProt Q8IX30 21-993, limits assumed).
T2 construct: also called SCUBE3 protein
T2 sequence (looked up): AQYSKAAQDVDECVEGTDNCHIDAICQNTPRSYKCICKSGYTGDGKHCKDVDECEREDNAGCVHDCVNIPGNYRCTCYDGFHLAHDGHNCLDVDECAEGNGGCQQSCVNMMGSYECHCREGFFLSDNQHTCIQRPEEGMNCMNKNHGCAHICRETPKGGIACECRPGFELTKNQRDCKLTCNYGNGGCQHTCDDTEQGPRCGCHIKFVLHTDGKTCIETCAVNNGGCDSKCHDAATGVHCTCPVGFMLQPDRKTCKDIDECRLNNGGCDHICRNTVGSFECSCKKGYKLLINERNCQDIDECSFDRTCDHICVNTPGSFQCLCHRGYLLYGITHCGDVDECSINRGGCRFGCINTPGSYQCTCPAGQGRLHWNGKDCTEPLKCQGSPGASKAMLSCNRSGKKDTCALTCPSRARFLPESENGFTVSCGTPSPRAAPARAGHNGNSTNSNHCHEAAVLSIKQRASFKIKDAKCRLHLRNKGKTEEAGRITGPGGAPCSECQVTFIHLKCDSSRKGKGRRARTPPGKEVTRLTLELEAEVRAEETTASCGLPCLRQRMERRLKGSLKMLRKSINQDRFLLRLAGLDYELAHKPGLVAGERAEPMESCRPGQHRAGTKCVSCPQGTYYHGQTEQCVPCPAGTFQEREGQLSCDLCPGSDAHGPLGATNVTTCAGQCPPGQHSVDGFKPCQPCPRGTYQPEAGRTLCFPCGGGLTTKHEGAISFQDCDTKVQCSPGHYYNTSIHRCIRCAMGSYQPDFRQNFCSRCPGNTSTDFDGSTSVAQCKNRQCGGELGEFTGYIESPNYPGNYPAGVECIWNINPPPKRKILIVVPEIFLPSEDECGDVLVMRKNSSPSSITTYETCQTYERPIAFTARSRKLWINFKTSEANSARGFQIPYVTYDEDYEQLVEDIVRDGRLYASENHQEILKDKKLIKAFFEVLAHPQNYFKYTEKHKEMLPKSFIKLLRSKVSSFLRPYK
Briefly: co-immunoprecipitation.

A further assay has as its target VEGFR1 (UniProt P17948 27-1338, limits assumed). Briefly: co-immunoprecipitation with anti-SCUBE2 antibody.
In the next assay the target is EGFR (UniProt P00533 25-1210, limits assumed). In words: co-immunoprecipitation with anti-SCUBE2 antibody.
Assay [4] has as its target T1, SCUBE1. Briefly: western blot of recombinant SCUBE proteins expressed in HEK-293T cells (FIG. 13A).
In assay [5] the target is T2, SCUBE3. The assay is described as above.

Sequence of VEGFR1 (P17948 27-1338 limits assumed): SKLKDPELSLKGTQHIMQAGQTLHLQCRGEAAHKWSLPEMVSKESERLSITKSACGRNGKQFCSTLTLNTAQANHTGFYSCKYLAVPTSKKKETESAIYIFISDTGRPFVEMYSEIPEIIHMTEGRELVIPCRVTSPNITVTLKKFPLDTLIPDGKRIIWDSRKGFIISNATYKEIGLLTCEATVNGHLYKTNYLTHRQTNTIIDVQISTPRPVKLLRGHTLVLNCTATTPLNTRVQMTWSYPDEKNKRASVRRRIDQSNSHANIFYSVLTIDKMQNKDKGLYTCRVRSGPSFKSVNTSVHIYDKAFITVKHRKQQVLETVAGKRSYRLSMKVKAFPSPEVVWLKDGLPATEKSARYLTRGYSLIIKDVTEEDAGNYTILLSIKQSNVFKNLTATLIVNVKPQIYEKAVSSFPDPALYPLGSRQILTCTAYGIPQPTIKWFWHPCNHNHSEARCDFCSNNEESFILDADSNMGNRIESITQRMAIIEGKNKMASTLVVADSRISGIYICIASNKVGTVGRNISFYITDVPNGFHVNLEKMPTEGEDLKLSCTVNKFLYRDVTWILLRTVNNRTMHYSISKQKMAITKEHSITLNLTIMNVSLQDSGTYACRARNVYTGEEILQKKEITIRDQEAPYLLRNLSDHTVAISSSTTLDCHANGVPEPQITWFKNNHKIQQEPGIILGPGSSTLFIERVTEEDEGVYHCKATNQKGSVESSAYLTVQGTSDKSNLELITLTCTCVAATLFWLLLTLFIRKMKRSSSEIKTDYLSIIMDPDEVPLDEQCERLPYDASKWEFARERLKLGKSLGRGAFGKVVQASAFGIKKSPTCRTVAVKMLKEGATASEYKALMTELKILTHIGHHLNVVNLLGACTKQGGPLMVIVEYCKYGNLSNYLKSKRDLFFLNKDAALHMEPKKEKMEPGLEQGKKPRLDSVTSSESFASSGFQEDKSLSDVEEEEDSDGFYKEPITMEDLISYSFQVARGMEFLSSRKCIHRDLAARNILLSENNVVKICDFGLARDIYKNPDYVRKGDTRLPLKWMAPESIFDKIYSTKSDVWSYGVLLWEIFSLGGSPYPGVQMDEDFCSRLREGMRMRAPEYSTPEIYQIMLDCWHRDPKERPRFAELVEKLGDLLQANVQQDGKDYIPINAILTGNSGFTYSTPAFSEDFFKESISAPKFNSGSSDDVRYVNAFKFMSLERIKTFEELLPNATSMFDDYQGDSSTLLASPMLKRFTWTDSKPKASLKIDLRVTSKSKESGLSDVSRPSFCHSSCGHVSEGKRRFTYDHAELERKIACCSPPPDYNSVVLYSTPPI

B1: anti-SCUBE2 mAb clone EGF-C3 (antibody, IgG2a, V domains shown)
VH: EVKLVESGGGLVQPGGSRKLSCVASGFTISSFGMHWVRQAPERGLEWVAYISSGSNTIYYADTVKGRFTISRDNPKNTLFLQMTSLWSEDTAMYYCARSGTLDGWFTYWGRGTLVTVST
VL: DIVMTQPPLSLPVSLGDQASISCRSSQSILHSNGNTYLEWYLQKPGQSPKLLIYKLFNRFSGVPDRFNGSGSGTDFTLKISRAEAEDLGVYYCLQGSHVPPTFGAGTKLEIK
Turning to B1, the binding result in assay [1] is “binds”.

B2: recombinant VEGF165 protein (ligand, UniProt P15692-4 27-191, looked up)
chain: APMAEGGGQNHHEVVKFMDVYQRSYCHPIETLVDIFQEYPDEIEYIFKPSCVPLMRCGGCCNDEGLECVPTEESNITMQIMRIKPHQGQHIGEMSFLQHNKCECRPKKDRARQENPCGPCSERRKHLFVQDPQTCKCSCKNTDSRCKARQLELNERTCRCDKPRR
notes: Bought reagent; also called VEGF-A165
On to B2, for which the binding result with SCUBE1 [2] and in the assay with SCUBE3 [3] was “no binding” throughout.

B3: anti-SCUBE2 mAb clone CR-#5 (antibody, IgG2b, V domains shown)
VH: EVQRVESGGDLVKPGGTLKLSCAASGFTFRNYGMSWVRQTPDKRLEWVATISSGGVYIYYPDSVKGRFTISRDNAKNTLFLQMSSLRSEDSAMYYCARDDYDGRGYFDYWGQGTTLTVSS
VL: DIVMSQSPSSLAVSAGEKVTMSCKSSQSLLNSRTRKNYLAWYQQKPGQSPKLLIYWASTRESGVPDRFTGSGSGTDFTLTISSVQAEDLAVYYCKQSYNLPTFGSGTKLDIK
As to B3, the binding result in assay [1] is recorded as “binds”. For the molecule B4, the binding result with VEGFR1 and with EGFR was “no binding” each time.

B5: anti-SCUBE2 mAb clone SP-B2 (antibody, IgG1, V domains shown)
VH: EVQRVESGGGLVKPGGSLKLSCAASGFTFRNYAMSWVRQTTEKKLEWVATINDVGSYTYFPASVKGRFTVSRDNTKNTLYLQMSSLRSEDTAMYYCVTSSDTVPHHHALDYWGQGSSVTVSS
VL: DIVMTQPPASLAVSLGQRATVFCRASQNVDSRGISFMHWYQQKPGQPPKLLIYAASNLESGIPARFRGSGSGTDFTLNIHPVEEEDVATYYCQQSVEDLTFGGGTKLELK
Take B5: in assay [1], the binding result was “binds”.

B6: anti-SCUBE2 mAb clone SP-A1 (antibody, IgG1, V domains shown)
VH: EVQLQQSGPELVKPGASVKVSCKASGYAFTSYNMYWVKQSHGKSLEWIGYIDPYNGDTNNNQKFKGKATLTVDKSSSTAYMHLNSLTSEDSAVYYCARSYRYLAWFAYWGQGTLVTVSA
VL: DIVMTQSPLSLPVSLGDQASISCRSSQSIVHSNGNTYLEWYLQKPGQSPKLLIYTVSNRFSGVPDRFSGSGSGTDFTLRISRVEAEDLGVYYCFQGSHIPYTFGGGTKLELK
notes: Mouse hybridoma mAb, IgG1
As for B6, in assay [1], the binding result is “binds”.

B7: anti-SCUBE2 mAb clone SP-B1 (antibody, IgG1, V domains shown)
VH: EVQLQQSGPELVKPGASVKVSCKASGYAFTSYNMYWVKQSHGKSLEWIGYIDPYNGDTNNNQKFKGKATLTVDKSSSTAYMHLNSLTSEDSAVYYCARSYRYLAWFAYWGQGTLVTVSA
VL: DIVMTQSPLSLPVSLGDQASISCRSSQSIVHSNGNTYLEWYLQKPGQSPKLLIYTVSNRFSGVPDRFSGSGSGTDFTLRISRVEAEDLGVYYCFQGSHIPYTFGGGTKLELK
notes: also called SP.B1 mAb
For the molecule B7, the results for the binding result (in the assay with SCUBE1 [4]; in the assay with SCUBE3 [5]; in assay [1]) were “no binding”, “no binding” and “binds”, respectively.
